Results published in US20250320281A1.

Key:
Experiment in all cases: cell-based or functional assay
[1] = target: HIV-1 Env of isolate 92WR021 (HIV-1)
[2] = target: HIV-1 Env of isolate MG RM-D-014 (HIV-1)
[3] = target: HIV-1 Env of isolate MG RM-D-018 (HIV-1)
[4] = target: HIV-1 Env of isolate MGRM-AE-002 (subtype AE) (HIV-1)
[5] = target: HIV-1 Env of isolate MGRM-AG-009 (subtype AG) (HIV-1)
[6] = target: HIV-1 JRFL Env (pseudovirus) (HIV-1)
[7] = target: HIV-1 Env of isolate MGRM-C-026 (pseudovirus) (HIV-1)
[8] = target: HIV-1 Env of isolate MGRM-C-005 (subtype C) (HIV-1)
[9] = target: HIV-1 envelope glycoprotein (Env) of isolate MGRM-C-019 (HIV-1)
[10] = target: HIV-1 envelope glycoprotein (Env) of isolate MGRM-C-017 (HIV-1)
[11] = target: HIV-1 Env of isolate 92TH021 (clade AE), on pseudovirus (HIV-1)
[12] = target: HIV-1 Env of isolate MGRM-C-001 (subtype C) (HIV-1)
[13] = target: HIV-1 Env of isolate MGRM-A-010 (subtype A) (HIV-1)
[14] = target: HIV-1 Env of isolate MGRM-AG-003 (subtype AG) (HIV-1)
[15] = target: HIV-1 Env of isolate MGRM-A-014 (subtype A) (HIV-1)
[16] = target: HIV-1 Env of isolate MGRM-C-027 (HIV-1)
[17] = target: HIV-1 Env of isolate 98CN009 (pseudovirus) (HIV-1)
[18] = target: HIV-1 Env of isolate MGRM-F1-013 (HIV-1)
[19] = target: HIV-1 Env of isolate MGRM-D-029 (pseudovirus) (HIV-1)
[20] = target: HIV-1 Env of isolate NL43 (subtype B pseudovirus) (HIV-1)
[21] = target: HIV-1 Env of isolate MGRM-D-012 (pseudovirus) (HIV-1)
[22] = target: HIV-1 Env of isolate MGRM-D-021 (pseudovirus) (HIV-1)
[23] = target: HIV-1 Env of isolate 92UG114 (pseudovirus) (HIV-1)
[24] = target: HIV-1 Env of isolate JR-CSF (subtype B pseudovirus) (HIV-1) (UniProt P20871)
[25] = target: HIV-1 Env of isolate MGRM-F1-021 (HIV-1)
[26] = target: HIV-1 Env of isolate MGRM-D-018 (pseudovirus) (HIV-1)
[27] = target: HIV-1 Env of isolate MGRM-Chronic-B-023 (subtype B pseudovirus) (HIV-1)
[28] = target: HIV-1 Env of isolate MGRM-D-019 (clade D pseudovirus) (HIV-1)
[29] = target: HIV-1 Env of pseudovirus MGRM-G-009 (clade G) (HIV-1)
[30] = target: HIV-1 Env of isolate 92UG024 (clade D pseudovirus) (HIV-1)
[31] = target: HIV-1 Env of isolate LAVI_C3 (HIV-1)
[32] = target: HIV-1 Env of pseudovirus MGRM-AE-001 (clade CRF01_AE) (HIV-1)
[33] = target: HIV-1 Env of pseudovirus MGRM-G-015 (HIV-1, clade G isolate MGRM-G-015)
[34] = target: HIV-1 Env of isolate MGRM-D-012 (clade D pseudovirus) (HIV-1)
[35] = target: HIV-1 Env of isolate APV_6, clade B, on pseudovirus (HIV-1)
[36] = target: HIV-1 Env of isolate PVO.4 (Acute), clade B, on pseudovirus (HIV-1)

Chain of 5329_C19 (PGT-136) (antibody) (VH): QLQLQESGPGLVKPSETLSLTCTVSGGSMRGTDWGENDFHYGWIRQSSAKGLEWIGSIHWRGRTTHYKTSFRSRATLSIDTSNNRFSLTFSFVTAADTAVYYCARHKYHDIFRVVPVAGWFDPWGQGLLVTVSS
Chain of 5329_C19 (PGT-136) (antibody) (VL): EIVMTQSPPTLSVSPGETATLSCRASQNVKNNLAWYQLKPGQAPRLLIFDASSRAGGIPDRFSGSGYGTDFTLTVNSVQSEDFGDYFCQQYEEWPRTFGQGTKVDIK
Chain of 5345_I01 (PGT-137) (antibody) (VH): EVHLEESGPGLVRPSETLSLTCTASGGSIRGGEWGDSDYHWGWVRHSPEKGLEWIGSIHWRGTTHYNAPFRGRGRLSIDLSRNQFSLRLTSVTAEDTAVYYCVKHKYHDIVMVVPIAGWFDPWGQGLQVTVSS
Chain of 5345_I01 (PGT-137) (antibody) (VL): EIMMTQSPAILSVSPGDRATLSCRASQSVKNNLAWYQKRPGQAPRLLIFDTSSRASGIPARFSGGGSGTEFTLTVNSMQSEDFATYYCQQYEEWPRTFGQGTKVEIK
Chain of 4980_N08 (PGT-143) (antibody) (VH): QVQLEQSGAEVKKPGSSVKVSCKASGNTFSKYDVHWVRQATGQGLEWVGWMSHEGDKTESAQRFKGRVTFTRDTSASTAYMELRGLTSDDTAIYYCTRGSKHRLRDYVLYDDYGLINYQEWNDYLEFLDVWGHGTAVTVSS
Chain of 4980_N08 (PGT-143) (antibody) (VL): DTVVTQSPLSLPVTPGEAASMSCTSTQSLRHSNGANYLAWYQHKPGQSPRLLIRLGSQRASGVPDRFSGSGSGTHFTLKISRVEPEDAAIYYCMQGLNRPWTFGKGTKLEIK
Chain of 4970_K22 (PGT-144) (antibody) (VH): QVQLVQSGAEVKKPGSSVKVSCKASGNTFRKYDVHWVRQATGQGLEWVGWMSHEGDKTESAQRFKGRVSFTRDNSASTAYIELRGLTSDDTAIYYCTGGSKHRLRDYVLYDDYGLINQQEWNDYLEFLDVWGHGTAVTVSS
Chain of 4970_K22 (PGT-144) (antibody) (VL): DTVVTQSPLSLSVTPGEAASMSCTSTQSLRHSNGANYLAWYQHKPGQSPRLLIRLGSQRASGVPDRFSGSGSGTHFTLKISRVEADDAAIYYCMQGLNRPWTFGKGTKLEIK
Chain of 4995_E20 (PGT-142) (antibody) (VH): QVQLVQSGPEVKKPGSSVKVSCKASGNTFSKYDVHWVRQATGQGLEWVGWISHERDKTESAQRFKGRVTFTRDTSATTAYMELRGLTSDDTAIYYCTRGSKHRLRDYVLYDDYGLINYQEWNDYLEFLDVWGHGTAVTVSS
Chain of 4995_E20 (PGT-142) (antibody) (VL): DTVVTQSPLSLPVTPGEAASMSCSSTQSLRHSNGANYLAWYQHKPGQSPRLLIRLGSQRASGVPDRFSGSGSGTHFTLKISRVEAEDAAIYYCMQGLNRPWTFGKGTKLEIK
Chain of 4993_K13 (PGT-141) (antibody) (VH): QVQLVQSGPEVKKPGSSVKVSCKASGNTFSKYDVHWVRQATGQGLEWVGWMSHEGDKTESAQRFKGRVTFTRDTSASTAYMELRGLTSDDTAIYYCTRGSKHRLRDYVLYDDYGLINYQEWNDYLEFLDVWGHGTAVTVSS

Row | Substance | IC50 [1] | IC50 (µg/mL), pseudovirus neutralization [2] | IC50 (µg/mL), pseudovirus neutralization [3] | IC50 (µg/mL), pseudovirus neutralization [4] | IC50 (µg/mL), pseudovirus neutralization [5] | IC50 (neutralizing activity, pseudovirus) [6] | Primary Neutralization Index (B cell culture supernatant) [7] | IC50 neutralization [8] | IC50 (µg/mL), pseudovirus neutralization [9] | IC50 (µg/mL), pseudovirus neutralization [10] | IC50, pseudovirus neutralization [11] | IC50 neutralization [12] | IC50 (µg/mL), pseudovirus neutralization [13] | IC50 (µg/mL), pseudovirus neutralization [14] | IC50 (µg/mL), pseudovirus neutralization [15] | other results
1 | 5329_C19 (PGT-136) (antibody) | > 50 µg/mL | > 50 µg/mL | > 50 µg/mL | > 50 µg/mL | > 50 µg/mL | > 10 µg/mL | 6 | > 50 µg/mL | 20.1 µg/mL | > 50 µg/mL | > 10 µg/mL | 7.52 µg/mL | > 50 µg/mL | > 50 µg/mL | > 50 µg/mL | 
2 | 5145_B14 (PGT-127) (antibody) |  |  |  |  |  |  | 86.9 |  |  |  |  |  |  |  |  | neutralization IC50 [16]: > 50 µg/mL; IC50, pseudovirus neutralization [17]: 0.09 µg/mL; IC50 (µg/mL), pseudovirus neutralization [18]: > 50 µg/mL; IC50, pseudovirus neutralization [19]: > 50 µg/mL; Polyclonal Transfectant Neutralization Index [7]: 2.62; IC50 (µg/mL), pseudovirus neutralization [20]: > 50 µg/mL; IC50, pseudovirus neutralization [21]: > 50 µg/mL; IC50, pseudovirus neutralization [22]: 0.056 µg/mL; IC50, pseudovirus neutralization [23]: 7.09 µg/mL; IC50 (µg/mL), pseudovirus neutralization [24]: 0.018 µg/mL; IC50 (µg/mL), pseudovirus neutralization [25]: > 50 µg/mL; IC50, pseudovirus neutralization [26]: 0.021 µg/mL; IC50 (µg/mL), pseudovirus neutralization [27]: > 50 µg/mL
3 | 5345_I01 (PGT-137) (antibody) | 3.52 µg/mL | > 50 µg/mL | 15.1 µg/mL | > 50 µg/mL | > 50 µg/mL |  | 11.3 | > 50 µg/mL | > 50 µg/mL | > 50 µg/mL |  | 21.5 µg/mL | > 50 µg/mL | > 50 µg/mL | 18.6 µg/mL | 
4 | 5343_B08 (PGT-135) (antibody) | > 50 µg/mL | 2.21 µg/mL | 0.039 µg/mL | > 50 µg/mL | > 50 µg/mL | > 10 µg/mL | 6.5 | > 50 µg/mL | 0.264 µg/mL | > 50 µg/mL | > 10 µg/mL | 10.1 µg/mL | > 50 µg/mL | > 50 µg/mL | 0.636 µg/mL | 
5 | 4877_D15 (PGT-122) (antibody) |  |  |  |  |  |  |  |  |  |  | > 10 µg/mL |  |  |  |  | neutralization IC50 [16]: 0.039 µg/mL; IC50, pseudovirus neutralization [17]: 0.013 µg/mL; IC50 (µg/mL), pseudovirus neutralization [18]: 0.152 µg/mL; IC50, pseudovirus neutralization [19]: > 50 µg/mL; neutralization IC50 (pseudovirus) [6]: 0.0471 µg/mL; IC50 (µg/mL), pseudovirus neutralization [20]: > 50 µg/mL; IC50, pseudovirus neutralization [21]: > 50 µg/mL; IC50, pseudovirus neutralization [22]: 11.7 µg/mL; IC50, pseudovirus neutralization [23]: 0.011 µg/mL; IC50 (µg/mL), pseudovirus neutralization [24]: 0.057 µg/mL; IC50 (µg/mL), pseudovirus neutralization [25]: 2.3 µg/mL; IC50, pseudovirus neutralization [26]: 0.007 µg/mL; IC50 (µg/mL), pseudovirus neutralization [27]: 0.01 µg/mL
6 | 4838_L06 (PGT-121) (antibody) |  |  |  |  |  |  |  |  |  |  | > 10 µg/mL |  |  |  |  | neutralization IC50 [16]: 0.011 µg/mL; IC50, pseudovirus neutralization [17]: 0.009 µg/mL; IC50 (µg/mL), pseudovirus neutralization [18]: 0.083 µg/mL; IC50, pseudovirus neutralization [19]: > 50 µg/mL; IC50 (µg/mL), pseudovirus neutralization [20]: > 50 µg/mL; IC50, pseudovirus neutralization [21]: > 50 µg/mL; IC50, pseudovirus neutralization [22]: 5.33 µg/mL; IC50, pseudovirus neutralization [23]: 0.004 µg/mL; IC50 (µg/mL), pseudovirus neutralization [24]: 0.027 µg/mL; IC50 (µg/mL), pseudovirus neutralization [25]: 0.099 µg/mL; IC50, pseudovirus neutralization [26]: 0.005 µg/mL; IC50 (µg/mL), pseudovirus neutralization [27]: 0.005 µg/mL
7 | 4980_N08 (PGT-143) (antibody) |  |  |  | > 50 µg/mL |  | > 10 µg/mL |  |  |  |  |  |  |  |  |  | 
8 | 4970_K22 (PGT-144) (antibody) |  |  |  | > 50 µg/mL |  | > 10 µg/mL |  |  |  |  |  |  |  |  |  | 
9 | 5136_H01 (PGT-131) (antibody) | 0.012 µg/mL | 0.516 µg/mL | 0.148 µg/mL | > 50 µg/mL | > 50 µg/mL |  | 1.2 | 1.36 µg/mL | 0.021 µg/mL | > 50 µg/mL |  | > 50 µg/mL | 0.01 µg/mL | 2.92 µg/mL | 15.4 µg/mL | 
10 | 4995_E20 (PGT-142) (antibody) |  |  |  | > 50 µg/mL |  | > 10 µg/mL |  |  |  |  |  |  |  |  |  | 
11 | 1496_C09 (PG9) (TCN-109) (antibody) |  |  |  |  |  |  |  |  |  |  | 0.103 µg/mL |  |  |  |  | IC50 (µg/ml), pseudovirus neutralization [28]: 0.03 µg/mL; IC50 [29]: 4.9 µg/mL; IC50 (µg/ml), pseudovirus neutralization [30]: 1.91 µg/mL; IC50 [31]: 1.45 µg/mL; IC50 [32]: 2.97 µg/mL; IC50 (µg/ml), pseudovirus neutralization [33]: 1.51 µg/mL; IC50 (µg/ml), pseudovirus neutralization [34]: 9.31 µg/mL; IC50 (µg/ml), pseudovirus neutralization [35]: 0.12 µg/mL; IC50 (µg/ml), pseudovirus neutralization [36]: 4.01 µg/mL
12 | 5147_N06 (PGT-130) (antibody) | 0.004 µg/mL | 0.061 µg/mL | 0.049 µg/mL | 1.53 µg/mL | 9.46 µg/mL |  | 3 | 0.935 µg/mL | 0.01 µg/mL | > 50 µg/mL | 0.0082 µg/mL | > 50 µg/mL | 0.005 µg/mL | 0.041 µg/mL | 0.161 µg/mL | Neutralization by PGT-130, IC50 [6]: 0.0346 µg/mL; Neutralization by PGT-130, IC80 [6]: 0.751 µg/mL; Neutralization by PGT-130, IC90 [6]: 5.72 µg/mL; Neutralization by PGT-130, IC95 [6]: > 10 µg/mL; neutralization IC50 (pseudovirus) [6]: 0.0346 µg/mL; Polyclonal Transfectant Neutralization Index [7]: 1.05
13 | VRC01 (antibody) |  |  |  | 0.217 µg/mL |  |  |  |  |  |  |  |  |  |  |  | IC50 (µg/mL), pseudovirus neutralization [16]: 0.125 µg/mL; IC50 [2]: 0.332 µg/mL; IC50 [3]: > 50 µg/mL; IC50 [18]: 0.17 µg/mL; IC50 [25]: 0.039 µg/mL
14 | 5123_A06 (PGT-125) (antibody) |  |  |  |  |  |  | 512 |  |  |  | 0.0066 µg/mL |  |  |  |  | neutralization IC50 [16]: > 50 µg/mL; IC50, pseudovirus neutralization [17]: 0.03 µg/mL; IC50 (µg/mL), pseudovirus neutralization [18]: > 50 µg/mL; IC50, pseudovirus neutralization [19]: > 50 µg/mL; neutralization IC50 (pseudovirus) [6]: 0.0156 µg/mL; Polyclonal Transfectant Neutralization Index [7]: 88.3; IC50 (µg/mL), pseudovirus neutralization [20]: > 50 µg/mL; IC50, pseudovirus neutralization [21]: > 50 µg/mL; IC50, pseudovirus neutralization [22]: 0.015 µg/mL; IC50, pseudovirus neutralization [23]: 0.349 µg/mL; IC50 (µg/mL), pseudovirus neutralization [24]: 0.004 µg/mL; IC50 (µg/mL), pseudovirus neutralization [25]: > 50 µg/mL; IC50, pseudovirus neutralization [26]: > 50 µg/mL; IC50 (µg/mL), pseudovirus neutralization [27]: > 50 µg/mL
15 | 5114_A19 (PGT-128) (antibody) | 0.005 µg/mL | 0.013 µg/mL | 0.008 µg/mL | 0.522 µg/mL | 0.021 µg/mL |  | 17.1 | 0.03 µg/mL | 0.01 µg/mL | 1.06 µg/mL |  | > 50 µg/mL | 0.005 µg/mL | 34.8 µg/mL | 0.007 µg/mL | Polyclonal Transfectant Neutralization Index [7]: 32.2
16 | 4993_K13 (PGT-141) (antibody) |  |  |  | > 50 µg/mL |  | > 10 µg/mL |  |  |  |  |  |  |  |  |  | 
